From PMC9482650, “Quantitative fragmentomics allow affinity mapping of interactomes” (Nature Communications, 2022)

Key:
Assay in all cases: holdup assay
Parameters in all cases: key: below the threshold = too weak to quantify, mostly under pKd 3.1 to 4
Conditions in all cases: plain residues with an end cap or a label only (N-terminal biotin on a linker: ado-ado)
ARHGEF11, O15085 = biological target: T1, ARHGEF11, O15085
T1 sequence (O15085 42-136, limits assumed, looked up): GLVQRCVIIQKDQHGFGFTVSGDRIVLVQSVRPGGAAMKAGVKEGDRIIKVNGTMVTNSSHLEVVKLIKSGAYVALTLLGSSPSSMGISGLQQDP

CARD11, Q9BXL7 = biological target: T2, CARD11, Q9BXL7
T2 sequence (Q9BXL7 662-765, limits assumed, looked up): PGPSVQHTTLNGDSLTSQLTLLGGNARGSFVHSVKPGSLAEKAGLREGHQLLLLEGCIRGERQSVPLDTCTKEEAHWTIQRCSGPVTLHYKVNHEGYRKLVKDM

DFNB31_3, Q9P202 = biological target: T3, DFNB31_3, Q9P202
T3 sequence (Q9P202 811-907, limits assumed, looked up): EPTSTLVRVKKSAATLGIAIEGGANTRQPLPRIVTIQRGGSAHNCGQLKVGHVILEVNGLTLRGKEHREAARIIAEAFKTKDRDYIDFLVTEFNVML

DLG1_2, Q12959 = biological target: DLG1_2, Q12959
DLG1_2, Q12959, sequence (Q12959 314-412): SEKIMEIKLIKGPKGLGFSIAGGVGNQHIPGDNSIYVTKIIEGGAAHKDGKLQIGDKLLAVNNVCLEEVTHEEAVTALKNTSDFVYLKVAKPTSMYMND

DLG1_3, Q12959 = biological target: DLG1_3, Q12959
DLG1_3, Q12959, sequence (Q12959 457-571): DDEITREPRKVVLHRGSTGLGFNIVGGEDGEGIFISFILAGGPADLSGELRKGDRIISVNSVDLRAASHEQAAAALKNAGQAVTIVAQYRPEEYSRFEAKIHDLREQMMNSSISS

DLG2_3, Q15700 = biological target: DLG2_3, Q15700
FRMPD2_2, Q68DX3 = biological target: FRMPD2_2, Q68DX3
FRMPD2_2, Q68DX3, sequence (Q68DX3 944-1038): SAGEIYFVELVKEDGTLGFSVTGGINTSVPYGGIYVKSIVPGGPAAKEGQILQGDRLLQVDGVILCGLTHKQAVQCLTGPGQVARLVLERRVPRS

GORASP1, Q9BQQ3 = biological target: GORASP1, Q9BQQ3
GORASP1, Q9BQQ3, sequence (Q9BQQ3 1-208): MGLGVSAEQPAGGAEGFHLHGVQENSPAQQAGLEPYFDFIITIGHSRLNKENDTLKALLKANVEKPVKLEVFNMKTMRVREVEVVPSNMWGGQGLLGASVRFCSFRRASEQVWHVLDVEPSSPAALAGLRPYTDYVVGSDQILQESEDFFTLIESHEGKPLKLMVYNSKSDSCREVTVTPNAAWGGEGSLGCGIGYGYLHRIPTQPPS

GRIP1_3, Q9Y3R0 = biological target: T4, GRIP1_3, Q9Y3R0
T4 sequence (Q9Y3R0 247-346, limits assumed, looked up): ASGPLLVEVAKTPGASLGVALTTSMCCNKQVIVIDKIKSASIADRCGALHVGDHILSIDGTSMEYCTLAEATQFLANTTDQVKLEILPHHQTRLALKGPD

GRIP1_5, Q9Y3R0 = biological target: T5, GRIP1_5, Q9Y3R0
T5 sequence (Q9Y3R0 568-668, limits assumed, looked up): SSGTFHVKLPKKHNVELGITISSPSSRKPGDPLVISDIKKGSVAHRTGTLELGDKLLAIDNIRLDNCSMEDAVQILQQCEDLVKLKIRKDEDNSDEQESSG

GRIP2_3, Q9C0E4 = biological target: GRIP2_3, Q9C0E4
GRIP2_3, Q9C0E4, sequence (Q9C0E4 238-339): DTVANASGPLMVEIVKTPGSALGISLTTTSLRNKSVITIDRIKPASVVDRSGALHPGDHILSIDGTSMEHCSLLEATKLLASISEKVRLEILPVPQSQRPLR

GRIP2_5, Q9C0E4 = biological target: GRIP2_5, Q9C0E4
GRIP2_5, Q9C0E4, sequence (Q9C0E4 544-642): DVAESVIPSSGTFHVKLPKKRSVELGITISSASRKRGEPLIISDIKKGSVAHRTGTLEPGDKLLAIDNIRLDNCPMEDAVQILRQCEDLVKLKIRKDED

HTRA2, O43464 = biological target: HTRA2, O43464
HTRA2, O43464, sequence (O43464 355-458): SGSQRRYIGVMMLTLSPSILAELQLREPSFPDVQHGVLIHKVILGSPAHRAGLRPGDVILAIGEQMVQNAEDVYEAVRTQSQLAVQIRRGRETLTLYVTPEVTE

Inadl_1, Q8NI35 = biological target: Inadl_1, Q8NI35
Inadl_1, Q8NI35, sequence (Q8NI35 113-229): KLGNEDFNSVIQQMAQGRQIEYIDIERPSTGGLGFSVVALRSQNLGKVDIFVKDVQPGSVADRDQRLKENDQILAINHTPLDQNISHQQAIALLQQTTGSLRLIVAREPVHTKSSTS

Inadl_4, Q8NI35 = biological target: Inadl_4, Q8NI35
Inadl_4, Q8NI35, sequence (Q8NI35 547-651): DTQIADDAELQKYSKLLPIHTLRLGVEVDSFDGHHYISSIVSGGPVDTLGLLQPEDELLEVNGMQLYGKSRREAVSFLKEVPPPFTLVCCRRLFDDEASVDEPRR

LNX2_3, Q8N448 = biological target: T6, LNX2_3, Q8N448
T6 sequence (Q8N448 463-564, limits assumed, looked up): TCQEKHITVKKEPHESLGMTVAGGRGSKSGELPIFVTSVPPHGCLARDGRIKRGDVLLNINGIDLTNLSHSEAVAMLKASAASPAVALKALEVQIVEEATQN

MAGI2_2, Q86UL8 = biological target: MAGI2_2, Q86UL8
MAGI2_2, Q86UL8, sequence (Q86UL8 410-522): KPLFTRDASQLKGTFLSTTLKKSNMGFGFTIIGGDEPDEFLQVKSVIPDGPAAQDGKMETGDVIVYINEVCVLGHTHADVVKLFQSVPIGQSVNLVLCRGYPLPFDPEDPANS

MAGI2_5, Q86UL8 = biological target: MAGI2_5, Q86UL8
MAGI2_5, Q86UL8, sequence (Q86UL8 915-1017): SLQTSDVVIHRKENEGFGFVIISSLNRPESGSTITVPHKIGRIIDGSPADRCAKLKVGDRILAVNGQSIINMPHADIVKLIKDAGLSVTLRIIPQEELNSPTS

MAGI2_6, Q86UL8 = biological target: MAGI2_6, Q86UL8
MAGI2_6, Q86UL8, sequence (Q86UL8 1141-1229): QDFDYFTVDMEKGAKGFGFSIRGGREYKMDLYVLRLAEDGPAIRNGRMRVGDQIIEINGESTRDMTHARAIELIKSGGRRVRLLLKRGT

MAGI3_2, Q5TCQ9 = biological target: MAGI3_2, Q5TCQ9
MAGI3_2, Q5TCQ9, sequence (Q5TCQ9 398-503): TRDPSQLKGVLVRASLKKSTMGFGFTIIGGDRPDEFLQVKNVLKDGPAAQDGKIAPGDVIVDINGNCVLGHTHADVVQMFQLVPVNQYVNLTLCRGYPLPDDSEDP

MPDZ_10, O75970 = biological target: T7, MPDZ_10, O75970
T7 sequence (O75970 1624-1722, limits assumed, looked up): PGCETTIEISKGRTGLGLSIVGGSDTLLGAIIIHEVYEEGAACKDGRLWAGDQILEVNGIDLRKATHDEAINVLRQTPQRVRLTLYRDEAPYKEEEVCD

NHERF3_1, Q5T2W1 = biological target: T8, NHERF3_1, Q5T2W1
T8 sequence (Q5T2W1 4-100, limits assumed, looked up): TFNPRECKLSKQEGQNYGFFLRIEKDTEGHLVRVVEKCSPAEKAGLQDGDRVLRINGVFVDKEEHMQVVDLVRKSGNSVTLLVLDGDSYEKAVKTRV

NHERF4_2, Q86UT5 = biological target: NHERF4_2, Q86UT5
NHERF4_2, Q86UT5, sequence (Q86UT5 220-308): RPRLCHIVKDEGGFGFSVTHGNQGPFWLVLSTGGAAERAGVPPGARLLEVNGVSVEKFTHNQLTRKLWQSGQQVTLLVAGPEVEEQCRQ

PTPN3, P26045 = biological target: PTPN3, P26045
PTPN3, P26045, sequence (P26045 505-587): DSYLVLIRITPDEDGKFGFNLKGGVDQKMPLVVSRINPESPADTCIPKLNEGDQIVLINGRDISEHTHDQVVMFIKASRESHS

RADIL, Q96JH8 = biological target: T9, RADIL, Q96JH8
T9 sequence (Q96JH8 971-1071, limits assumed, looked up): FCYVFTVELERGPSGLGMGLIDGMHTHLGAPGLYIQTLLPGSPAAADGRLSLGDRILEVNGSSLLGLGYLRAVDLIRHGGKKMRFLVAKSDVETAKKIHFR

SCRIB_3, Q14160 = biological target: SCRIB_3, Q14160
SCRIB_3, Q14160, sequence (Q14160 999-1103): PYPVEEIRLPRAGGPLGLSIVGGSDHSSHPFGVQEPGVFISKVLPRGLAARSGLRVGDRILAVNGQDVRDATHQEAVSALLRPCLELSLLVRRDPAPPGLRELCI

SNTA1, Q13424 = biological target: T10, SNTA1, Q13424
T10 sequence (Q13424 82-180, limits assumed, looked up): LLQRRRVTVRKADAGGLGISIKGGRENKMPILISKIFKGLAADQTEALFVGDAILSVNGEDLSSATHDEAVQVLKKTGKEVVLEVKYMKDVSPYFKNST

Measured: pKd

B1: DUSP10, Q9Y6W6 (peptide)
chain: PKLMGVETVV
5.32: MAGI3_2, Q5TCQ9
4.21: DLG2_3, Q15700
4.52: DLG1_3, Q12959
4: ARHGEF11, O15085
4.73: MAGI2_2, Q86UL8
below the threshold: CARD11, Q9BXL7 | DFNB31_3, Q9P202 | GRIP1_3, Q9Y3R0 | GRIP1_5, Q9Y3R0 | GRIP2_3, Q9C0E4 | GRIP2_5, Q9C0E4 | HTRA2, O43464 | Inadl_1, Q8NI35 | Inadl_4, Q8NI35 | LNX2_3, Q8N448 | MPDZ_10, O75970 | NHERF3_1, Q5T2W1 | NHERF4_2, Q86UT5
5.13: SNTA1, Q13424
4.1: FRMPD2_2, Q68DX3
4.44: SCRIB_3, Q14160
4.06: MAGI2_5, Q86UL8
5.61: DLG1_2, Q12959
3.99: MAGI2_6, Q86UL8
4.5: RADIL, Q96JH8
4.66: PTPN3, P26045
4.36: GORASP1, Q9BQQ3

B2: APPL1, Q9UKG1 (peptide)
chain: EGGKKRESEA
below the threshold: ARHGEF11, O15085 | CARD11, Q9BXL7 | DFNB31_3, Q9P202 | DLG1_2, Q12959 | DLG1_3, Q12959 | FRMPD2_2, Q68DX3 | GORASP1, Q9BQQ3 | GRIP1_3, Q9Y3R0 | GRIP1_5, Q9Y3R0 | GRIP2_3, Q9C0E4 | GRIP2_5, Q9C0E4 | HTRA2, O43464 | Inadl_1, Q8NI35 | Inadl_4, Q8NI35 | LNX2_3, Q8N448 | MAGI2_2, Q86UL8 | MAGI2_5, Q86UL8 | MAGI2_6, Q86UL8 | MAGI3_2, Q5TCQ9 | MPDZ_10, O75970 | NHERF3_1, Q5T2W1 | NHERF4_2, Q86UT5 | RADIL, Q96JH8 | SNTA1, Q13424
4.14: PTPN3, P26045
3.82: SCRIB_3, Q14160
3.73: DLG2_3, Q15700

B3: GAGE12J, A6NER3 (peptide)
chain: PEEGKKQSQC
4: DFNB31_3, Q9P202
3.62: ARHGEF11, O15085
3.68: NHERF3_1, Q5T2W1
3.91: PTPN3, P26045
3.67: MAGI2_2, Q86UL8
below the threshold: CARD11, Q9BXL7 | DLG1_2, Q12959 | DLG1_3, Q12959 | FRMPD2_2, Q68DX3 | GORASP1, Q9BQQ3 | GRIP1_3, Q9Y3R0 | GRIP1_5, Q9Y3R0 | GRIP2_3, Q9C0E4 | GRIP2_5, Q9C0E4 | HTRA2, O43464 | Inadl_1, Q8NI35 | Inadl_4, Q8NI35 | LNX2_3, Q8N448 | MAGI2_5, Q86UL8 | MAGI2_6, Q86UL8 | MAGI3_2, Q5TCQ9 | MPDZ_10, O75970 | NHERF4_2, Q86UT5 | RADIL, Q96JH8 | SCRIB_3, Q14160 | SNTA1, Q13424
3.61: DLG2_3, Q15700

B4: ITK, Q08881 (peptide)
chain: QLAEIAESGL
3.53: GORASP1, Q9BQQ3 | GRIP2_3, Q9C0E4
below the threshold: CARD11, Q9BXL7 | DFNB31_3, Q9P202 | DLG1_2, Q12959 | DLG2_3, Q15700 | GRIP1_3, Q9Y3R0 | GRIP1_5, Q9Y3R0 | HTRA2, O43464 | Inadl_1, Q8NI35 | Inadl_4, Q8NI35 | LNX2_3, Q8N448 | MAGI2_2, Q86UL8 | MAGI2_5, Q86UL8 | MAGI3_2, Q5TCQ9 | MPDZ_10, O75970 | RADIL, Q96JH8
3.52: FRMPD2_2, Q68DX3
3.68: MAGI2_6, Q86UL8
4.05: ARHGEF11, O15085
4.89: PTPN3, P26045
4.76: NHERF3_1, Q5T2W1
3.57: NHERF4_2, Q86UT5
3.63: SNTA1, Q13424
4.16: SCRIB_3, Q14160
3.65: GRIP2_5, Q9C0E4
3.86: DLG1_3, Q12959

B5: EZH1, Q92800 (peptide)
chain: VGIERETDVL
3.58: SCRIB_3, Q14160
4: MAGI3_2, Q5TCQ9
3.52: PTPN3, P26045
3.85: DLG1_2, Q12959
4.63: SNTA1, Q13424
below the threshold: ARHGEF11, O15085 | CARD11, Q9BXL7 | DFNB31_3, Q9P202 | DLG1_3, Q12959 | DLG2_3, Q15700 | FRMPD2_2, Q68DX3 | GORASP1, Q9BQQ3 | GRIP1_3, Q9Y3R0 | GRIP1_5, Q9Y3R0 | GRIP2_3, Q9C0E4 | GRIP2_5, Q9C0E4 | HTRA2, O43464 | Inadl_1, Q8NI35 | Inadl_4, Q8NI35 | LNX2_3, Q8N448 | MAGI2_2, Q86UL8 | MAGI2_5, Q86UL8 | MAGI2_6, Q86UL8 | MPDZ_10, O75970 | NHERF3_1, Q5T2W1 | NHERF4_2, Q86UT5 | RADIL, Q96JH8
